Results on five molecules are retold here after patent publication US20230174642A1, “AFFINITY-MATURATED ANTI-ASIC1a ANTIBODIES” (SHANGHAITECH UNIVERSITY, priority 2019, published 2023).

Where a chain is given by its changes, count along the chain named.

The target in experiment [1] is T1, mouse ASIC1a (mASIC1a-eYFP) (Mus musculus, UniProt Q6NXK8).
T1 construct: expressed in transfected cells; host or cells: CHO-K1 (transient)
T1 sequence (Q6NXK8 1-526): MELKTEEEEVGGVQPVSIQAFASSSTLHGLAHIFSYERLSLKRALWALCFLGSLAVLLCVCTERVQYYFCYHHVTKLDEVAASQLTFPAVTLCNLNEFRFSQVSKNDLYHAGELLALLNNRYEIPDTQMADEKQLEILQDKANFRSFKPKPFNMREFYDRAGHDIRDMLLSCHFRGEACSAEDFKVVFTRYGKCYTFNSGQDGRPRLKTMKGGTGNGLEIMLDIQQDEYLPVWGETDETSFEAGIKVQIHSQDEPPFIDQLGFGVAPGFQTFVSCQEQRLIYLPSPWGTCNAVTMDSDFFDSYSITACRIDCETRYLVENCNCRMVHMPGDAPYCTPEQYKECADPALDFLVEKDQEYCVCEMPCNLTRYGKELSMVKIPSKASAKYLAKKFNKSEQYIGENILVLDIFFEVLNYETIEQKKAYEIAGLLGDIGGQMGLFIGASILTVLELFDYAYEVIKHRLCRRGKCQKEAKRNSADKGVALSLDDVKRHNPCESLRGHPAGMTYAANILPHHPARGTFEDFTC
As to the kind of experiment: FACS-based binding assay, transiently transfected CHO-K1 cells (species selectivity). Conditions: double positive population. How it is done:
To investigate the species selectivity of ASC06-IgG1 affinity-matured antibodies, plasmids encoding fusion proteins of eYFP with […] homologs of ASIC1a were constructed. These plasmids included those encoding human ASIC1a (hASIC1a-eYFP), mouse ASIC1a (mASIC1a-eYFP), and rat ASIC1a (rASIC1a-eYFP). CHO-K1 cells were transiently transfected with the ASIC1a-eYFP plasmids, and a fluorescence activated cell sorting (FACS)-based binding assay was carried out to determine binding to the homologs or isoforms of ASIC1a expressed on the cell surface. An isotype control was used as a negative control for binding (NC). ASC06-IgG1 was used as a positive control. Summarily, the CHO-K1 cells expressing the ASIC1a-eYFP (green) homologs were stained with the indicated antibody (red) and subjected to FACS.

The target in experiment [2] is T2, ASIC1a (Homo sapiens, UniProt P78348).
T2 construct: expressed in transfected cells
T2 sequence (P78348 1-528): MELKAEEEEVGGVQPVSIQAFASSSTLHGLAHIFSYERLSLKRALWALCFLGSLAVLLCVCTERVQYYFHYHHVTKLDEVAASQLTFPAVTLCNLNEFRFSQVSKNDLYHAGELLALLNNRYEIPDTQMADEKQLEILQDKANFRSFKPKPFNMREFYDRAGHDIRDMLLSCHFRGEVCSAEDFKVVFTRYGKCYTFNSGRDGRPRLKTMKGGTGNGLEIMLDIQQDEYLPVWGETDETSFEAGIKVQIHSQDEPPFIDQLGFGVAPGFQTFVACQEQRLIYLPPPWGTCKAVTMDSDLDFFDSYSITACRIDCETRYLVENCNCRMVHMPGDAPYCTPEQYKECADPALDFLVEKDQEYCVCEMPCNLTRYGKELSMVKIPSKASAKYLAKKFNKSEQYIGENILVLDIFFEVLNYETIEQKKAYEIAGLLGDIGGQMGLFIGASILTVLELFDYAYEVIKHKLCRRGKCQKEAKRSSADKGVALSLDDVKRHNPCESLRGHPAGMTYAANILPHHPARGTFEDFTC
Kind of experiment: Patch clamp whole-cell recording of acid-induced hASIC1a currents. Type of experiment: cell-based. To be noted: for blockage of ASIC1a-mediated currents compared to ASC06-IgG1: 100 nM antibody. How it is done: FIGS. 4A-4E show the effect of affinity-matured ASC06-IgG1 derivative antibodies on the hASIC1a currents. Shown are the representative current traces recorded from single CHO-K1 cells stably expressing hASIC1a in the absence or presence of 100 nM ASC06-IgG1 (FIG. 4A) or affinity-matured ASC06-IgG1 versions ASC06-01-IgG1 (FIG. 4B), ASC06-02-IgG1 (FIG. 4C), ASC06-03-IgG1 (FIG. 4D), or ASC06-04-IgG1 (FIG. 4E). Amiloride (30 μM) was used as a positive control. “Wash” represents the recovery of the current after the treatment of 100 nM indicated antibody followed by 15 min infusion of washing solution.
Whether the affinity-matured ASC06-IgG1 derivative antibodies have an effect on the acid-induced, hASIC1a-mediated electrical current in cells was tested. An hASIC1a overexpressing stable cell line was used as a model for these studies. Extracellular pH was decreased from pH 7.4 to pH 6.0 and the amplitudes of the hASIC1a-mediated inward currents were recorded in the whole-cell recording mode in the presence of the affinity-matured ASC06-IgG1 derivative antibodies (FIGS. 4A-4E). The ASIC1a inhibitor amiloride (30 μM) was used as a positive control for the inhibition of ASIC1a currents.
(In general: In patch-clamp work, channel activity is measured electrically.)

In experiment [3] the target is T2, ASIC1a. Kind of experiment: FLIPR-based fluorescent membrane potential (FMP) assay. Format: cell-based. To be noted: increasing doses, pH 6. An excerpt: A fluorescence-based assay using the FLIPR Membrane Potential Assay Kit (FMP kit) (Molecular Devices) was used for functional characterization of ASC06-IgG1 and the affinity-matured derivatives thereof. Specifically, the role of ASIC1a in acidosis and the effect of the antibodies of current disclosure was probed further. The FMP dye in the kit is a lipophilic, anionic, bis-oxonol dye, which permits a sensitive evaluation of changes in membrane potential with a more rapid response time. Using the FMP kit, a sensitive cell-based assay to detect acid-induced ASIC1a currents was developed using a cell line stably expressing ASIC1a. The ASIC1a-expressing stable cells were seeded in 96-well plates. The cells were treated with different concentrations of ASC06-IgG1. Untreated cells were used as a negative control. ASIC1a was stimulated by inducing acidosis by decreasing the extracellular pH to 6, and the changes in the fluorescent signal of the FMP dye were measured. An isotype control was used as a negative control for binding. […] The assay was applied to detect the efficiency of inhibition of ASIC1a currents by ASC06-IgG1, and affinity-matured derivatives thereof.
Using similar assays, the IC50 values for inhibition of ASIC1a currents were calculated based on the maximal fluorescent intensity of each concentration of antibodies compared to the negative control.

The target of experiment [4] is T2, ASIC1a. As to the kind of experiment: FLIPR-based assay of ASIC1a-mediated calcium influx. Format: cell-based. Conditions: increasing doses, pH 6. The method, then: The calcium influx of the ASIC1a channel was measured using a Fluorescence Imaging Plate Reader (FLIPR) instrument by measuring the fluorescent signal generated by the intracellular calcium indicator dye Calcium 5 (Molecular Devices) in a stable cell line expressing hASIC1a-m Cherry fusion.
The inhibition to calcium influx the affinity-matured ASC06-IgG1 derivative antibodies was also measured using the FLIPR-based assay. Using these assays, the IC50 values were calculated based on the maximal fluorescent intensity of the intracellular calcium indicator dye.

B1: ASC06-01-IgG1: affinity-matured ASC06 derivative, VH-CDR3 DSYFGYSKGD (SEQ ID NO: 11) (antibody, V domains shown)
VH: QVQLQQSGGGLVQPGGSLRLSCAASGFTFSSYAMSWVRQAPGKGLEWVSAISGSGGSTYYADSVKGRFTISRDNSKNTLYLQMNSLRAEDTAVYYCAKDSYFGYSKGDWGQGTLVTVSS
VL: QSALTQPASVSGSPGQSITISCTGTSSDVGAYNYVSWYQQQPGKAPKLMIYGVSNRPSGVSNRFSGSKSGNAASLTISGLQAEDEADYYCSSYTSSSTYVFGTGTKLTVLG
Turning to B1, in experiment [1], the “binding to cells expressing mASIC1a-eYFP” value is reported as “bound”.

B2: ASC06-04-IgG1: affinity-matured ASC06 derivative, VH-CDR3 DSFYGRAKGV (SEQ ID NO: 17) (antibody, V domains shown)
VH: B1 VH with Y101F, F102Y, Y104R, S105A, D108V
VL: B1 VL
For the molecule B2, in experiment [1], the “binding to cells expressing mASIC1a-eYFP” value is “bound”. Moreover, the “blockage of ASIC1a-mediated currents compared to ASC06-IgG1” value (from here on “blockage … compared to ASC06-IgG1”) with ASIC1a [2] is listed as “stronger blockage”. Further, the “Percent inhibition of the acid induced-hASIC1a currents” value with ASIC1a [2] (300 nM antibody, pH 7.4 to pH 6.0, mean ± standard deviation) amounted to 96.8 ± 3.4%.

B3: ASC06-03-IgG1: affinity-matured ASC06 derivative, VH-CDR3 DSFYGRAKGS (SEQ ID NO: 15) (antibody, V domains shown)
VH: B1 VH with Y101F, F102Y, Y104R, S105A, D108S
VL: B1 VL
Turning to B3, the “binding to cells expressing mASIC1a-eYFP” value in experiment [1] is “bound”. In the experiment with ASIC1a [2], the “blockage … compared to ASC06-IgG1” value is given as “stronger blockage”.

B4: ASC06-02-IgG1: affinity-matured ASC06 derivative, VH-CDR3 DSFFGRAKGS (SEQ ID NO: 13) (antibody, V domains shown)
VH: B1 VH with Y101F, Y104R, S105A, D108S
VL: B1 VL
For the molecule B4, the “binding to cells expressing mASIC1a-eYFP” value in experiment [1] is recorded as “bound”. For the same molecule, the “blockage … compared to ASC06-IgG1” value with ASIC1a [2] is “stronger blockage”.

B5: ASC06-IgG1: parental (WT) ASIC1a-specific antagonist antibody; VL SEQ ID NO: 2, VH SEQ ID NO: 7, VH-CDR3 DSFYGYSKGD (antibody, V domains shown)
VH: B1 VH with Y101F, F102Y
VL: B1 VL
modifications: IgG1 constant regions; Amino acid sequence VH of ASC06; Amino acid sequence VL of ASC06
As for B5, the “inhibition of the fluorescent intensities (ASIC1a-mediated current)” value with ASIC1a [3] is given as “dose-dependent inhibition”. Further, the “inhibition of calcium influx” value with ASIC1a [4] is given as “dose-dependent inhibition”. Also, the “binding to cells expressing mASIC1a-eYFP” value in experiment [1] is “bound”.
